Source: US20220411498A1 (JACOBIO PHARMACEUTICALS, published 2022)
Read-outs that look alike come from different tables or passages of the source. Blank lines part the entries; values can stand above or below the binder they belong to.

Tests used:
[1] = biological target: T1, huCD39 on the cell surface (293T/17-huCD39 cells) (human, UniProt P49961 1-510); assay: flow cytometry on 293T/17-huCD39 cells
T1 construct: whole, on cells; also called natural CD39 protein on the cell surface; huCD39 antigen on the cell surface
T1 sequence (looked up): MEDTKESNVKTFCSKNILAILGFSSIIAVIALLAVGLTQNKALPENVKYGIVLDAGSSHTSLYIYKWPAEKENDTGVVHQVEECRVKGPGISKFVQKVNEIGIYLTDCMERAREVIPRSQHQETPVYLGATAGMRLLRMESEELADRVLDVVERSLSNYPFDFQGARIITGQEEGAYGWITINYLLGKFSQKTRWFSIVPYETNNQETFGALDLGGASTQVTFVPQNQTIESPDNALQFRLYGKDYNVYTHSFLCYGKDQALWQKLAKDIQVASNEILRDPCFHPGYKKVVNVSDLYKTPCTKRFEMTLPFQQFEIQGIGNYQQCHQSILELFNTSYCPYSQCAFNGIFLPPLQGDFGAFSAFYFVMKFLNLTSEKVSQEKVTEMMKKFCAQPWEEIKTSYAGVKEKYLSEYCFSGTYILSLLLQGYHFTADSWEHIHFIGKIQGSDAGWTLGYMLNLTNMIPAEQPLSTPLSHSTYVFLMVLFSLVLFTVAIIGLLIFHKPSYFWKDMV
Method: Flow cytometry assay: recombinant host cell line 293T/17-huCD39 cells expressing huCD39 were used to evaluate the binding ability of the humanized antibody to the natural CD39 protein on the cell surface. The recombinant cells were resuspended in PBS buffer, 2×10⁶ cells were added to a 96-well U-plate, and a certain gradient dilution range of the humanized antibody was incubated for 1h at 4° C. in a refrigerator or on ice. The mixture was centrifuged at 1500 rpm for 3 min at 4° C., and washed three times with PBS buffer. Then, incubated for 30 min at 4° C. in the refrigerator or on ice with diluted Alexa Fluor 488-labeled goat anti-human polyclonal antibody (pAb): Goat anti-Human IgG (H+L) Cross-Adsorbed Secondary Antibody, Alexa Fluor 488 (thermo), and finally the cells were washed three times with PBS as described above and analyzed in MACSQuant flow cytometry. Data plots were generated and affinity data were counted using GraphPad Prism software (FIG. 5). The results are shown in Table 5, and the EC₅₀ values of 293T/17-huCD39 humanized antibody were all at the level of 10⁻⁹M.

[2] = biological target: T1, huCD39 on the cell surface …; assay: cell-based or functional assay
[3] = biological target: T2, huCD39 recombinant protein (human, UniProt P49961 38-478); assay: indirect ELISA, huCD39 recombinant protein coated at 1 ug/mL
T2 construct: the entry is the extracellular domain and ends in a histidine tag; also called soluble huCD39 protein; human CD39 extracellular domain recombinant protein
T2 sequence: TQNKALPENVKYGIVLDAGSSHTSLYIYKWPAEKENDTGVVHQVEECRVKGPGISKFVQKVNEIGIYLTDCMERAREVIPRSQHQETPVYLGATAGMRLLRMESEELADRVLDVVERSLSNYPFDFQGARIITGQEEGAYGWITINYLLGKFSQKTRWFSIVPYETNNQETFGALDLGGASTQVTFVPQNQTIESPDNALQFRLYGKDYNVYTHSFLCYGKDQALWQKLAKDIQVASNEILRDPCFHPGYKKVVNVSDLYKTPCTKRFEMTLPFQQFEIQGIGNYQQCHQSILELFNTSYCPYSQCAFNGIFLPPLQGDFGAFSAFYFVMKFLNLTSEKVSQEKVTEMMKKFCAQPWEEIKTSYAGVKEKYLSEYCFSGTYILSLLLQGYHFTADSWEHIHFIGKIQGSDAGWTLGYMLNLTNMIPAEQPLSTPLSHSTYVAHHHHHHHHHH
Method: The next day, washed 5 times with PBS buffer and blocked with 200 μL/well of 2% skim milk powder for 1 h. A certain dose range of CD39 humanized antibody was added, and incubated for 1 h at room temperature. Then, washed 5 times with PBST washing buffer (PBS, 0.05% Tween 20), 100 μL HRP-labeled secondary antibody was added to each well, and incubated for 30 min at room temperature. The plates were washed 5 times again, and TMB (Life Technologies) was added for color development for 5 to 10 min. Finally, 1N HCl was added to terminate the reaction, and the OD value was measured at 450 nm. GraphPad Prism software was used to generate data plots and count the affinity data (FIG. 4). The EC₅₀ values of the binding activity of the three humanized antibodies were all at the level of 10⁻¹⁰ M.

[4] = biological target: T1, huCD39 on the cell surface …; assay: cell-based or functional assay; remark: listed apart in the source
[5] = biological target: T2, huCD39 recombinant protein; assay: indirect ELISA, huCD39 recombinant protein coated at 1 ug/mL; remark: listed apart in the source
Method: The Fv region of the four mouse-derived antibodies obtained in Example 1 was fused with the human IgG2 Fc region and constructed into the pcDNA3.1 vector. Then transfected 293F cells to express the antibody proteins, and the antibodies were purified by ProteinA affinity chromatography. […] The next day, the plates were washed 5 times with PBS buffer and blocked with 200 μL/well of 2% skimmed milk powder for 1 h. A certain dose range of chimeric CD39 antibody was incubated for 1 h at room temperature; then washed 5 times with PBST washing buffer (PBS, 0.05% Tween 20). 100 μL of HRP-labeled secondary antibody was added to each well and the plates were incubated for 30 min at room temperature. The plates were washed 5 times again and TMB (Life Technologies) was added for color development for 5 to 10 min. At last, 1N HCl was added to terminate the reaction, and the OD value was measured at 450 nm. GraphPad Prism software was used to generate data plots and the affinity data was counted (FIG. 1).

[6] = biological target: T3, cyno CD39 on the cell surface (293T/17-cyno CD39 cells) (cyno, UniProt P49961 7-510 (human entry)); assay: cell-based or functional assay
T3 chain: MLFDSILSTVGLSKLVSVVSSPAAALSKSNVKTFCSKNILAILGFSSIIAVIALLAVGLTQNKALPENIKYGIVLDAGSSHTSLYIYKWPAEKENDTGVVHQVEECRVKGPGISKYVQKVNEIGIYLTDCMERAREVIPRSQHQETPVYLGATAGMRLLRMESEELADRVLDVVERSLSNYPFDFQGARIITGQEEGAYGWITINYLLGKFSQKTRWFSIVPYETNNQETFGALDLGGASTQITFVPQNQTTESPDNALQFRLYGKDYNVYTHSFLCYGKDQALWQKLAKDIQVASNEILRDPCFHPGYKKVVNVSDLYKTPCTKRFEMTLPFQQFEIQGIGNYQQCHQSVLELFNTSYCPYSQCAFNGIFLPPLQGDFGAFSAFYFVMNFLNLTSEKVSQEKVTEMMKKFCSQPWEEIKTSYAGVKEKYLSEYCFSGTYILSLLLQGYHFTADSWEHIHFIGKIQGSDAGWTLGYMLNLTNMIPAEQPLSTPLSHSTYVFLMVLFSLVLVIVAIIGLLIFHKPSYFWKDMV

[7] = biological target: T1, huCD39 on the cell surface …; assay: cell-based or functional assay; remark: listed apart in the source
[8] = biological target: T1, huCD39 on the cell surface …; assay: flow cytometry on 293T/17-huCD39 cells; remark: listed apart in the source
Method: (§1) Flow cytometry assay: recombinant host cell line 293T/17-huCD39 cells expressing huCD39 and recombinant host cell line 293T/17-cyno CD39 cells expressing cyno CD39 were used to evaluate the binding ability of the chimeric antibody to the natural CD39 protein on the cell surface. The recombinant cells were resuspended in PBS buffer, and 2×10⁶ cells were added to a 96-well U-plate. The chimeric antibody in a certain gradient dilution range incubated for 1h at 4° C. in a refrigerator or on ice, centrifuged at 1500 rpm for 3 min at 4° C., washed three times with PBS buffer, and then incubated for 30 min at 4° C. in the refrigerator or on ice with diluted Alexa Fluor 488-labeled goat anti-human polyclonal antibody (pAb): Goat anti-Human IgG (H+L) Cross-Adsorbed Secondary Antibody, Alexa Fluor 488 (thermo). Finally the cells were washed three times with PBS as described above and analyzed in MACSQuant flow cytometry. GraphPad Prism software was used to generate data plots and count affinity data (FIG. 2). The results are shown in Table 2, and the EC₅₀ values of each chimeric antibody of 293T/17-huCD39 and 293T/17-cyno CD39 was at the level of 10⁻⁹M.

[9] = biological target: T3, cyno CD39 on the cell surface …; assay: flow cytometry on 293T/17-cyno CD39 cells
Method: as §1

Bottom [1]: -1.33
EC50 [1]: 3.31 nM
Top [1]: 280
Blocking of ATPase activity on cell surface (293T/17-huCD39, CellTiter Glo): Bottom [2]: 39600
Blocking of ATPase activity on cell surface (293T/17-huCD39, CellTiter Glo): EC50 [2]: 0.038 nM
Blocking of ATPase activity on cell surface (293T/17-huCD39, CellTiter Glo): Top [2]: 245000
Bottom [3]: 0.109 OD450
EC50 [3]: 0.433 nM
Top [3]: 1.03 OD450
EC50 of reversal of ATP-mediated proliferation inhibition of human CD4+ T cells (CFSE, flow cytometry) [4]: 5.08 nM
EC50 of reversal of ATP-mediated proliferation inhibition of human CD8+ T cells (CFSE, flow cytometry) [4]: 7.08 nM
B1: h201H3.1+h201L1.1dmut G2C (antibody, human IgG2, kappa, V domains shown)
VH: QVQLVESGGGVVQPGRSLRLSCAASGFTFSDYGMHWVRQAPGKGLEWVAYISSGSSIMYYADTVKGRFTISRDNSKNTLYLQMNSLRAEDTAVYYCARDLYYDHVLDYWGQGTTVTVSS
VL: DIQMTQSPSSLSASVGDRVTITCRASQEIRGYLIWLQQKPGKAIKRLIYAASTLESGVPSRFSGSRSGSDYTLTISSLQPEDFATYYCLQYTSYPRTFGQGTKVEIKR
notes: Humanized antibody, expressed in 293F cells

Bottom [5]: 0.06 OD450
EC50 [5]: 2.43 nM
Top [5]: 1.43 OD450
Blocking of ATPase activity on cell surface (293T/17-cyno CD39, CellTiter Glo): Bottom [6]: 55600
Blocking of ATPase activity on cell surface (293T/17-cyno CD39, CellTiter Glo): EC50 [6]: 0.024 nM
Blocking of ATPase activity on cell surface (293T/17-cyno CD39, CellTiter Glo): Top [6]: 275000
Blocking of ATPase activity on cell surface (293T/17-huCD39, CellTiter Glo): EC50 [7]: 0.011 nM
Blocking of ATPase activity on cell surface (293T/17-huCD39, CellTiter Glo): Top [7]: 1.03e+06
Bottom [8]: 2.17
EC50 [8]: 5.92 nM
Top [8]: 151
Bottom [9]: 1.81
EC50 [9]: 11 nM
Top [9]: 191
B2: 216 hIgG2 (antibody, V domains shown)
VH: EVQLVESGGGLVKPGGSLKLPCAASGFTFSDYGMHWVRQAPEKGLEWVAYISSGSSIIYYADTVKGRFTISRDNAKNTLFLQMTSLRSEDTAMYYCARDLYYDHVLDYWGQGTTLTVAS
VL: DIQMTQSPSSLSASLGERVSLTCRASQEISGYLIWLQQKPDGTIKRLIYAASTLDSGVPKRFSGNRSGSDYSLTISSLESEDFADYYCLQYASYPRTFGGGTKLEIKR
notes: Chimeric antibody: mouse Fv fused to the human IgG2 constant region; also called chimeric antibody 216
